Experimental data reported in publication PMC5780203.

How the values were obtained:
[1] = target: PHD finger of human BPTF protein (human); assay: ITC
[2] = target: chromodomain of CBX5; assay: ITC

| fold weaker Kd than the native H3K4me3 peptide [1] [fold] | fold tighter binding than the H3KC9me3 peptide [2] [fold] | Substance |
| --- | --- | --- |
| 13 | – | H3KC4me3 peptide MLA (methyllysine analog of H3K4me3) |
| – | 6 | trimethylated H3 lysine 9 peptide |
